According to patent publication US20050106100:

Experiments:
[1] = biological target: T1, Ac-P-Cit-G˜Hphe-LQ-Hynic (not fully specified)
T1 chain: PXGXLQ

[2] = biological target: T2, Ac-P-DArg-R˜LTA-Ahxh-Hynic (not fully specified)
T2 chain: PRRLTA

[3] = biological target: T3, Ac-PLG˜LYQ-Ahxh-Ac[C14] (not fully specified)
T3 chain: PLGLYQ

[4] = biological target: T4, Ac-P-Cit-G˜Nle-LA-Ahxh-Hynic (not fully specified)
T4 chain: PXGXLA

[5] = biological target: T5, Ac-P-Cit-G˜Hphe-Cha-A-Ahxh-Ac[C14] (not fully specified)
T5 chain: PXGXXA

[6] = biological target: T6, Ac-PLG˜Hphe-OL-Ambh-Hynic
T6 chain: PLGXXL

[7] = biological target: T7, Ac-P-DLeu-G˜LL-Ahxh-Hynic (not fully specified)
T7 chain: PLGLL

[8] = biological target: T8, Ac-PLG˜LYS-Ahxh-Ac[C14] (not fully specified)
T8 chain: PLGLYS

[9] = biological target: T9, Ac-PL-DAla˜LL-Ahxh-Hynic (not fully specified)
T9 chain: PLALL

[10] = biological target: T10, Ac-NGlu-POG˜Hphe-L-Hynic (not fully specified)
T10 chain: XPXGXL

[11] = biological target: T11, Ac-P-Cha-G˜Smc-HA-Ahxh-Hynic (not fully specified)
T11 chain: PXGXHA

[12] = biological target: T12, Ac-PLG˜Hphe-YL-Ambh-Hynic
T12 chain: PLGXYL

[13] = biological target: T13, Ac-PLG˜Hphe-YL-Ahxh-Hynic (not fully specified)
T13 chain: PLGXYL

[14] = biological target: T14, Ac-PLG˜LY-Ahxh-Ac[C14] (not fully specified)
T14 chain: PLGLY

[15] = biological target: T15, Ac-PLG˜S(OBn)-LL-Ahxh-Ac[C14] (not fully specified)
T15 chain: PLGSLL

[16] = biological target: T16, Ac-P-Cit-Cit-LTA-Ahxh-Hynic
T16 chain: PXXLTA

[17] = biological target: T17, Ac-PHG˜Hphe-L-Ahxh-Hynic (not fully specified)
T17 chain: PHGXL

[18] = biological target: T18, Ac-DAla-PRG˜Ile-LA-Ahxh-Hynic (not fully specified)
T18 chain: APRGILA

[19] = biological target: T19, Ac-P-NLeu-G˜LL-Ahxh-Ac[C14] (not fully specified)
T19 chain: PXGLL

[20] = biological target: T20, Ac-PL-NLys-LL-NHNH-Ac[C14]
T20 chain: PLXLL

[21] = biological target: T21, Ac-P-Cit-G˜S(OBn)-LA-Ahxh-Hynic (not fully specified)
T21 chain: PXGSLA

[22] = biological target: T22, Ac-NLys-PLG˜Hphe-RLA-Ahxh-Hynic (not fully specified)
T22 chain: XPLGXRLA

[23] = biological target: T23, Ac-PLG˜LLA-Ahxh-Hynic (not fully specified)
T23 chain: PLGLLA

[24] = biological target: T24, Ac-PR-Cit˜LSA-Ahxh-Hynic
T24 chain: PRXLSA

[25] = biological target: T25, Ac-PLG˜Hphe-YL-Hynic
T25 chain: PLGXYL

[26] = biological target: T26, Hynic-fff-Ahx-PLG˜Hphe-OLEE-OH
T26 chain: FFFXPLGXXLEE

[27] = biological target: T27, Ac-PRG˜LLT-Ahxh-Hynic
T27 chain: PRGLLT

[28] = biological target: T28, Ac-PLG-LYV-Ahxh-Ac[C14]
T28 chain: PLGLYV

[29] = biological target: T29, Ac-PLG˜Hphe-RLA-Ahxh-Hynic
T29 chain: PLGXRLA

[30] = biological target: T30, Ac-PLG˜LWA-Ahxh-Hynic (not fully specified)
T30 chain: PLGLWA

[31] = biological target: T31, Ac-PLG˜LWA-Ahxh-Ac[C14] (not fully specified)
T31 chain: PLGLWA

[32] = biological target: T32, Ac-PLG˜Hphe-YLA-Ahxh-Hynic
T32 chain: PLGXYLA

[33] = biological target: T33, Ac-PLG˜L-Cha-Ahxh-Ac[C14] (not fully specified)
T33 chain: PLGLX

[34] = biological target: T34, Ac-PLG˜LRA-Ahxh-Hynic (not fully specified)
T34 chain: PLGLRA

[35] = biological target: T35, Ac-NLys-PLG˜LL-Ahxh-Hynic (not fully specified)
T35 chain: XPLGLL

[36] = biological target: T36, Ac-POG˜Hphe-LA-Ahxh-Hynic
T36 chain: PXGXLA

[37] = biological target: T37, Ac-P-Cit-G˜Chg-LA-Ahxh-Hynic (not fully specified)
T37 chain: PXGXLA

[38] = biological target: T38, Ac-P-Cha-G˜LL-Ahxh-Ac[C14] (not fully specified)
T38 chain: PXGLL

[39] = biological target: T39, Ac-P-O(Me)2-G˜Hphe-L-Nle-Ahxh-Hynic (not fully specified)
T39 chain: PXGXLX

[40] = biological target: T40, Ac-PL-Sar˜LL-Ahxh-Ac[C14] (not fully specified)
T40 chain: PLXLL

[41] = biological target: T41, Ac-PLG˜Hphe-K(Me)2-L-Ahxh-Hynic (not fully specified)
T41 chain: PLGXKL

[42] = biological target: T42, Ac-POG˜Hphe-L-Hynic
T42 chain: PXGXL

[43] = biological target: T43, Ac-P-Cit-Aib˜Hphe-LA-Ahxh-Hynic (not fully specified)
T43 chain: PXXXLA

[44] = biological target: T44, Ac-LRY˜Cha-TA-Ahxh-Hynic (not fully specified)
T44 chain: LRYXTA

[45] = biological target: T45, Ac-Tic-Cit-G˜Hphe-SA-Ahxh-Hynic
T45 chain: XXGXSA

[46] = biological target: T46, Ac-Csa-PLG˜Hphe-YL-Ambh-Hynic (not fully specified)
T46 chain: XPLGXYL

[47] = biological target: T47, Ac-PRQ˜ITA-Ahxh-Hynic
T47 chain: PRQITA

[48] = biological target: T48, Ac-PL-NLys˜S(OBn)-LL-Ahxh-Ac[C14] (not fully specified)
T48 chain: PLXSLL

[49] = biological target: T49, Ac-PL-NLys˜Hphe-RL-Ahxh-Ac[C14] (not fully specified)
T49 chain: PLXXRL

[50] = biological target: T50, Ac-DArg-P-Aib-G˜Hphe-LA-Ahxh-Hynic (not fully specified)
T50 chain: RPXGXLA

B1: human MMP-9 (protein)
chain: MRTPRCGVPDLGRFQTFEGDLKWHHHNITYWIQNYSEDLPRAVIDDAFARAFALWSAVTPLTFTRVYSRDADIVIQFGVAEHGDGYPFDGKDGLLAHAFPPGPGIQGDAHFDDDELWSLGKGVVVPTRFGNADGAACHFPFIFEGRSYSACTTDGRSDGLPWCSTTANYDTDDRFGFCPSERLYTQDGNADGKPCQFPFIFQGQSYSACTTDGRSDGYRWCATTANYDRDKLFGFCPTRADSTVMGGNSAGELCVFPFTFLGKEYSTCTSEGRGDGRLWCATTSNFDSDKKWGFCPDQGYSLFLVAAHEFGHALGLDHSSVPEALMYPMYRFTEGPPLHKDDVNGIRHLYGPRPEPEPRPPTTTTPQPTAPPTVCPTGPPTVHPSERPTAGPTGPPSAGPTGPPTAGPSTATTVPLSPVDDACNVNIFDAIAEIGNQLYLFKDGKYWRFSEGRGSRPQGPFLIADKWPALPRKLDSVFEERLSKKLFFFSGRQVWVYTGASVLGPRRLDKLGLGADVAQVTGALRSGRGKMLLFSGRRLWRFDVKAQMVDPRSASEVDRMFPGVPLDTHDVFQYREKAYFCQDRFYWRVSSRSELNQVDQVGYVTYDILQCPED
- Kcat/Km [1]: 79600 M⁻¹ s⁻¹
- Kcat/Km [2]: 0 M⁻¹ s⁻¹
- Kcat/Km [3]: 658000 M⁻¹ s⁻¹
- Kcat/Km [4]: 116000 M⁻¹ s⁻¹
- Kcat/Km [5]: > 500000 M⁻¹ s⁻¹
- Kcat/Km [6]: 57700 M⁻¹ s⁻¹
- Kcat/Km [7]: 438 M⁻¹ s⁻¹
- Kcat/Km [8]: > 500000 M⁻¹ s⁻¹
- Kcat/Km [9]: 0 M⁻¹ s⁻¹
- Kcat/Km [10]: 613 M⁻¹ s⁻¹
- Kcat/Km [11]: > 250000 M⁻¹ s⁻¹
- Kcat/Km [12]: 190000 M⁻¹ s⁻¹
- Kcat/Km [13]: > 100000 M⁻¹ s⁻¹
- Kcat/Km [14]: 336000 M⁻¹ s⁻¹
- Kcat/Km [15]: > 500000 M⁻¹ s⁻¹
- Kcat/Km [16]: 29300 M⁻¹ s⁻¹
- Kcat/Km [17]: 4430 M⁻¹ s⁻¹
- Kcat/Km [18]: 61700 M⁻¹ s⁻¹
- Kcat/Km [19]: 0 M⁻¹ s⁻¹
- Kcat/Km [20]: 138000 M⁻¹ s⁻¹
- Kcat/Km [21]: > 250000 M⁻¹ s⁻¹
- Kcat/Km [22]: 373000 M⁻¹ s⁻¹
- Kcat/Km [23]: 226000 M⁻¹ s⁻¹
- Kcat/Km [24]: 40100 M⁻¹ s⁻¹
- Kcat/Km [25]: > 100000 M⁻¹ s⁻¹
- Kcat/Km [26]: 1740 M⁻¹ s⁻¹
- Kcat/Km [27]: 73300 M⁻¹ s⁻¹
- Kcat/Km [28]: > 500000 M⁻¹ s⁻¹
- Kcat/Km [29]: 57700 M⁻¹ s⁻¹
- Kcat/Km [30]: > 500000 M⁻¹ s⁻¹
- Kcat/Km [31]: > 750000 M⁻¹ s⁻¹
- Kcat/Km [32]: 201000 M⁻¹ s⁻¹
- Kcat/Km [33]: 475000 M⁻¹ s⁻¹
- Kcat/Km [34]: > 500000 M⁻¹ s⁻¹
- Kcat/Km [35]: 83200 M⁻¹ s⁻¹
- Kcat/Km [36]: > 500000 M⁻¹ s⁻¹
- Kcat/Km [37]: 20700 M⁻¹ s⁻¹
- Kcat/Km [38]: 180000 M⁻¹ s⁻¹
- Kcat/Km [39]: 27000 M⁻¹ s⁻¹
- Kcat/Km [40]: 143000 M⁻¹ s⁻¹
- Kcat/Km [41]: 55000 M⁻¹ s⁻¹
- Kcat/Km [42]: 4450 M⁻¹ s⁻¹
- Kcat/Km [43]: 0 M⁻¹ s⁻¹
- Kcat/Km [44]: 811 M⁻¹ s⁻¹
- Kcat/Km [45]: 1880 M⁻¹ s⁻¹
- Kcat/Km [46]: 41600 M⁻¹ s⁻¹
- Kcat/Km [47]: 3520 M⁻¹ s⁻¹
- Kcat/Km [48]: 271000 M⁻¹ s⁻¹
- Kcat/Km [49]: 114000 M⁻¹ s⁻¹
- Kcat/Km [50]: 0 M⁻¹ s⁻¹

B2: MMP-2 (protein)
chain: APSPIIKFPGDVAPKTDKELAVQYLNTFYGCPKESCNLFVLKDTLKKMQKFFGLPQTGDLDQNTIETMRKPRCGNPDVANYNFFPRKPKWDKNQITYRIIGYTPDLDPETVDDAFARAFQVWSDVTPLRFSRIHDGEADIMINFGRWEHGDGYPFDGKDGLLAHAFAPGTGVGGDSHFDDDELWTLGEGQVVRVKYGNADGEYCKFPFLFNGKEYNSCTDTGRSDGFLWCSTTYNFEKDGKYGFCPHEALFTMGGNAEGQPCKFPFRFQGTSYDSCTTEGRTDGYRWCGTTEDYDRDKKYGFCPETAMSTVGGNSEGAPCVFPFTFLGNKYESCTSAGRSDGKMWCATTANYDDDRKWGFCPDQGYSLFLVAAHEFGHAMGLEHSQDPGALMAPIYTYTKNFRLSQDDIKGIQELYGASPDIDLGTGPTPTLGPVTPEICKQDIVFDGIAQIRGEIFFFKDRFIWRTVTPRDKPMGPLLVATFWPELPEKIDAVYEAPQEEKAVFFAGNEYWIYSASTLERGYPKPLTSLGLPPDVQRVDAAFNWSKNKKTYIFAGDKFWRYNEVKKKMDPGFPKLIADAWNAIPDNLDAVVDLQGGGHSYFFKGAYYLKLENQSLKSVKFGSIKSDWLGC
- Kcat/Km [1]: 171000 M⁻¹ s⁻¹
- Kcat/Km [2]: 6880 M⁻¹ s⁻¹
- Kcat/Km [3]: 439000 M⁻¹ s⁻¹
- Kcat/Km [4]: 174000 M⁻¹ s⁻¹
- Kcat/Km [5]: > 500000 M⁻¹ s⁻¹
- Kcat/Km [6]: 42700 M⁻¹ s⁻¹
- Kcat/Km [7]: 5010 M⁻¹ s⁻¹
- Kcat/Km [8]: > 500000 M⁻¹ s⁻¹
- Kcat/Km [9]: 0 M⁻¹ s⁻¹
- Kcat/Km [10]: 265 M⁻¹ s⁻¹
- Kcat/Km [11]: 146000 M⁻¹ s⁻¹
- Kcat/Km [12]: 63200 M⁻¹ s⁻¹
- Kcat/Km [13]: > 100000 M⁻¹ s⁻¹
- Kcat/Km [14]: 283000 M⁻¹ s⁻¹
- Kcat/Km [15]: 473000 M⁻¹ s⁻¹
- Kcat/Km [16]: 27300 M⁻¹ s⁻¹
- Kcat/Km [17]: 22100 M⁻¹ s⁻¹
- Kcat/Km [18]: 130000 M⁻¹ s⁻¹
- Kcat/Km [19]: 0 M⁻¹ s⁻¹
- Kcat/Km [20]: 134000 M⁻¹ s⁻¹
- Kcat/Km [21]: > 250000 M⁻¹ s⁻¹
- Kcat/Km [22]: 461000 M⁻¹ s⁻¹
- Kcat/Km [23]: 387000 M⁻¹ s⁻¹
- Kcat/Km [24]: 14700 M⁻¹ s⁻¹
- Kcat/Km [25]: 63200 M⁻¹ s⁻¹
- Kcat/Km [26]: 11600 M⁻¹ s⁻¹
- Kcat/Km [27]: 98600 M⁻¹ s⁻¹
- Kcat/Km [28]: 396000 M⁻¹ s⁻¹
- Kcat/Km [29]: 64000 M⁻¹ s⁻¹
- Kcat/Km [30]: > 500000 M⁻¹ s⁻¹
- Kcat/Km [31]: 712000 M⁻¹ s⁻¹
- Kcat/Km [32]: 221000 M⁻¹ s⁻¹
- Kcat/Km [33]: 359000 M⁻¹ s⁻¹
- Kcat/Km [34]: > 500000 M⁻¹ s⁻¹
- Kcat/Km [35]: 76300 M⁻¹ s⁻¹
- Kcat/Km [36]: > 500000 M⁻¹ s⁻¹
- Kcat/Km [37]: 14400 M⁻¹ s⁻¹
- Kcat/Km [38]: 24700 M⁻¹ s⁻¹
- Kcat/Km [39]: 567000 M⁻¹ s⁻¹
- Kcat/Km [40]: 111000 M⁻¹ s⁻¹
- Kcat/Km [41]: 72000 M⁻¹ s⁻¹
- Kcat/Km [42]: 63700 M⁻¹ s⁻¹
- Kcat/Km [43]: 275 M⁻¹ s⁻¹
- Kcat/Km [44]: 0 M⁻¹ s⁻¹
- Kcat/Km [45]: 3100 M⁻¹ s⁻¹
- Kcat/Km [46]: 19500 M⁻¹ s⁻¹
- Kcat/Km [47]: 2400 M⁻¹ s⁻¹
- Kcat/Km [48]: 165000 M⁻¹ s⁻¹
- Kcat/Km [49]: 102000 M⁻¹ s⁻¹
- Kcat/Km [50]: 18600 M⁻¹ s⁻¹
